According to patent publication US20050277575A1, “Therapeutic compositions and methods for treating diseases that involve angiogenesis” (priority 2004, published 2005):

Biological target: T1, t-PA-mediated plasminogen activation (Homo sapiens, UniProt P00750)
T1 construct: purchased Calbiochem
Test: t-PA-mediated plasminogen conversion kinetics with and without S100A4 (Example 12)
Format: biochemical
Conditions: for acceleration of plasmin formation (K units): 1 μM S100A4, 100 nM plasminogen
Method: The effects of peptide SEQ ID 6, peptide SEQ ID 38 and chimera SEQ ID 39 on acceleration oft-PA-mediated conversion of plasminogen to plasmin induced by S100A4 were measured. The kinetics of t-PA-mediated plasminogen activation were determined by measuring the amidolytic activity of plasmin formed during activation of plasminogen. All the experiments were done in 100 μl volume in 96-well plates in triplicates. Glu-plasminogen (Calbiochem) at the concentration of 100 nM was preincubated at 25° C. for 1 h in the presence or absence of 1 μM recombinant S100A4 in a buffer consisting of 50 mM Tris-HCl, pH 7.4, 100 mM NaCl and 5 mM CaCl2 or 5 mM EGTA. In some experiments, different concentrations of peptides or chimera were preincubated together with proteins. The reaction was initiated by addition of 5 nM t-PA (Calbiochem) and 125 μM chromogenic plasmin substrate, Chromozym PL (Roche). The reactions were monitored at 405 nm for 1.5 h in a SPECTRAmax PLUS^384 microplate spectrophotometer (Molecular Devices) under control of the SOFTmax PRO kinetic program (Molecular Devices). The initial rates of plasmin generation, during the first 10-15 min, were calculated using linear regression analysis of plots of A405 nm versus time 2. The initial rates of plasmin generation were reported in units (K) of A405 nm/min^2×10^3. […] The titration data were analyzed with the four-parameter logistic equation K=(A−D)/(1+(x/C)^B)D. If A, asymptotic minimum, =0, this equation is converted to the Michaelis-Menten equation K=D/(1+(C/[S])^B), where [S] is substrate concentration, D=Vmax, C=Km, and B is the Hill coefficient.
The addition of S100A4 to basal reaction (t-PA plus plasminogen) produced a significant increase in the plasminogen conversion rate. […] The stimulation of the plasminogen conversion by S100A4 was concentration-dependent with the half-maximal effect at 2.4 μM.
The kinetic parameters of t-PA-mediated plasminogen conversion were evaluated in the presence and absence of S100A4 as a function of plasminogen concentrations ranging from 3 nM to 3 μM.

T1 sequence (P00750 36-562): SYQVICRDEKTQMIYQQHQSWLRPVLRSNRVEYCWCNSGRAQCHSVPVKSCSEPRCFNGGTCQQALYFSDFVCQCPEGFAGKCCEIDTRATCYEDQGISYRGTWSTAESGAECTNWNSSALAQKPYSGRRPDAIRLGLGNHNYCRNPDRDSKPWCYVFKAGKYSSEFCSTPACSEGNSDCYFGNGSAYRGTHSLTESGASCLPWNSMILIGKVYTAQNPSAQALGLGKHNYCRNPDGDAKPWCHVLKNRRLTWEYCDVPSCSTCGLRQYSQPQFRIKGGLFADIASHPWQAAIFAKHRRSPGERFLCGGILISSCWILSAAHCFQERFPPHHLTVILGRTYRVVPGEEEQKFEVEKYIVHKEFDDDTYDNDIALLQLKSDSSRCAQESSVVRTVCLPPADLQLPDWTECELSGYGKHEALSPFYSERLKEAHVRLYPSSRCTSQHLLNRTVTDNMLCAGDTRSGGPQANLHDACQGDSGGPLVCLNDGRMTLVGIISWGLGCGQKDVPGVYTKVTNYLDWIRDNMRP

plasmin generation in the absence of t-PA (no t-PA): plasmin generation did not take place | acceleration of plasmin formation (K units) (presence of Ca2+): 15 fold | acceleration of plasmin formation (K units) (presence of EGTA): 11 fold
Substance: S100A4: recombinant human S100A4 protein cloned from human placenta total RNA, Ca-binding protein of S100 family
EC50 (concentration-dependent stimulation, read-out: half-maximal effect of stimulation of plasminogen conversion): 2.4 µM | Km (plasminogen 3 nM to 3 μM, read-out: Km of the t-PA-mediated plasminogen conversion): 0.059 µM | increase in the catalytic efficiency (Vmax/Km) of t-PA (presence of EGTA): 7.6 fold | increase in the catalytic efficiency (Vmax/Km) of t-PA (presence of calcium): 10 fold
